Measurements as given in the DeepSol protein solubility set.

Experiment: soluble on expression in E. coli; label from the status in PepcDB or PDB records

Sequence	soluble on expression in E. coli
MNRVDLSIFIPDSLTAETGDLKIKTYKVVLIARAASIFGVKRIVIYHDDADGEARFIRDILTYMDTPQYLRRKVFPIMRELKHVGILPPLRTPHHPTGKPVTGEYRQGLTVKRVKKGTLVDIGADKLALCREKLTVNRIMSFRVVRLGKEILIEPDEPEDRYWGYEVLDTRRNLAESLKTVGADVVVATSRNASPITSILDEVKTRMRGAREAAILFGGPYKGLPEIDADIWVNTLPGQCTETVRTEEAVLATLSVFNMLTQIDEKDE	soluble
MGSDKIHHHHHHMFGYVLPLRGELKVKDYEKFKSYYCGLCLSIKKNYGNLPRSVLNYDMTFLAVLLDALEDKKCEFRLNRCIAHPYKKKYAIINNKALDYAAFFNICLVYYKLVDDVNDDKKISSKIKSLLLRGYFKKFPKPFYVYSDYIKSSLTELNKLEKKSNNLTLDEISHPFSDLTAFIISSYADNKPYKDILYNIGYNLGKWIYIMDAYDDLKEDIKLKKFNAINNTMNLDDKPYEDLIKDISPKISFVLSMCGSNCLHNLNLLPLKTNQDILFNILQYGLLDKMNNLNL	not soluble
MCSYARATDANGESFIYCRTWQGQFFRFKLEDRVYDYVTTFAKSDACLATDPDDPTKIYCALNEYNKITCIDLTKNPEDSGFETDVCGIQGPGAYQDGHVSVARLNNPQQILSMHDPETGEKVIYICDANNNCVRMYNMETKLMSTVAGIGGKSGYAAGNPTVSRMNRPYGICITPENDIYVADAGNKVIMKLAFMLEHHHHHH	not soluble
SITSTVLPPVYNQQNEDTCIIRISVEDNNGNMYKSIMLTSQDKTPAVIQRAMSKHNLESDPAEEYELVQVISEDKELVIPDSANVFYAMNSQVNFDFILRKKN	soluble
MTTKRIDRDLPSSDDPSSAKRRIEFPEETLENDGAAAIKLLSLLLQCAEYVATDHLREASTLLSEISEICSPFGSSPERVVAYFAQALQTRVISSYLSGACSPLSEKPLTVVQSQKIFSALQTYNSVSPLIKFSHFTANQAIFQALDGEDSVHIIDLDVMQGLQWPALFHILASRPRKLRSIRITGFGSSSDLLASTGRRLADFASSLNLPFEFHPIEGIIGNLIDPSQLATRQGEAVVVHWMQHRLYDVTGNNLETLEILRRLKPNLITVVEQELSYDDGGSFLGRFVEALHYYSALFDALGDGLGEESGERFTVEQIVLGTEIRNIVAHGGGRRKRMKWKEELSRVGFRPVSLRGNPATQAGLLLGMLPWNGYTLVEENGTLRLGWKDLSLLTASAWKSQPFD	soluble
GPGSMSSERYVDGDLGEPFNSAEPLTLPVVVQLLRGRRDTSLDHPASRLIEKTCRQVELMQETCADECRVQRVMETRLRLVNKNNRQQMNAHLGNFVVGEDGFATLPPESDDFLDTAEEEAMKMFEVVALGTLQPKTADEARELIPSLGRFEPADLNKVLEMLDSL	not soluble
MGSDKIHHHHHHMKILHLGKFYPLKGGMEKAILDIVRGISMQGVTCDLLCVSTEKAGVFPLNEHAHIYAMPSVCNVNSVRISPLLIPTLRKLCPNYDIIHIHCPNPMANLALYLSGYRGKVVLHWHSDILKQKYALKLYKPLQTWLIRRADVIIGTSPVYLENSPFLRGMEHKFRIVPLGCEAIVPSADRVSDIRKQYKGKRIIFALGRLIAYKGFRFLIEAARYLDDGYVVLIGGTGPLYNKLLKQINEENLQGKVCLLGYVTDDEVAQYYGACDVFCLSSVWKTEAFGLVQIEAMSCGKPVVATNIEGSGVPWVNRNGYSGLNVEPENPEALAKAIMKITSSEEAYRTYSRQARAHYNKMFVKERMLAGYEQVYASLYHEK	not soluble
MLVCNPYEVVIHGTTSSGKIFRPSDWAERLCGILSSFTKDHRLSYSKWVRPILVDNIRCVAVDKKLETDNPQMFRFLMDFAADNDLRVIDCKALLEEREQGGQNNPADEHVMLAQAIEEKHAAEKAQEQTASGASYVLREIGADDTATAFAALSVLRSALTDINRFTEQINKVQRPQGYRLLGIFEEGKHNAVAVCGFREACTLASGRHIHIDDIVTLPQSRRKGYASRLLEEVRKIGAETGVTKIHLNVHVNHDRADAHRLYFKNGFEICAYHFRCDPK	not soluble
SAASEHRCVGCGFRVKSLFIQYSPGNIRLMKCGNCKEVADEYIECERMIIFIDLILHRPKVYRHVLYNAINPATVNIQHLLWKLVFAYLLLDCYRSLLLRKSDEESSFSDSPVLLSIKVRSFLFNGLN	soluble
